In article PMC5524754, “Angiopoietin-like 4 induces a β-catenin-mediated upregulation of ID3 in fibroblasts to reduce scar collagen expression” (Scientific Reports, 2017):

Target: T1, Extracellular domain of human CDH11 (Abnova) (human, UniProt P55287 54-617)
T1 construct: cadherin-11 (CDH11), human, extracellular domain; No catalogue number is printed; also called cadherin-11; immobilized CDH11; source: bought: Abnova
T1 sequence (looked up): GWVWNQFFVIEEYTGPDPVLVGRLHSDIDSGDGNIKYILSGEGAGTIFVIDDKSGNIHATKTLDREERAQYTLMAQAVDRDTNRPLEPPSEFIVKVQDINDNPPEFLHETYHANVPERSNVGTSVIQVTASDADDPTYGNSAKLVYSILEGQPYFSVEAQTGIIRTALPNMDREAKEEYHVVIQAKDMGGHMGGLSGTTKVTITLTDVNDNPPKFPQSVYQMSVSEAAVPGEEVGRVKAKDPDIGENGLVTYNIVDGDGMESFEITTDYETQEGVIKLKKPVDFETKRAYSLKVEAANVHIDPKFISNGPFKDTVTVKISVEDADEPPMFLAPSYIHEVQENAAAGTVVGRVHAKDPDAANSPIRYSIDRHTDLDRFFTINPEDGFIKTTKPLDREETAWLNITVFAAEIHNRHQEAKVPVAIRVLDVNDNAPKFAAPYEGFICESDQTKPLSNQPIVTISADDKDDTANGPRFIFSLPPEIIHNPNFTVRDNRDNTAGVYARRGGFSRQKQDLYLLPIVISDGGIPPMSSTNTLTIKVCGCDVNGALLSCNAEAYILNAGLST
Experiment: SPR; BIACore 3000; extracellular domain of human CDH11 immobilised on a CM5 chip by amine coupling; PBS running buffer; cANGPTL4 injected at 28.6, 14.3, 7.15, 3.58 and 1.79 nM, 10 uL/min; Langmuir 1:1 model
Conditions: both partners purified

Kd: 42.8 nM
B1: recombinant human cANGPTL4 (C-terminal fibrinogen-like domain of angiopoietin-like 4) (domain or fragment, UniProt Q9BY76 179-401, looked up)
chain: SRLHRLPRDCQELFQVGERQSGLFEIQPQGSPPFLVNCKMTSDGGWTVIQRRHDGSVDFNRPWEAYKAGFGDPHGEFWLGLEKVHSITGDRNSRLAVQLRDWDGNAELLQFSVHLGGEDTAYSLQLTAPVAGQLGATTVPPSGLSVPFSTWDQDHDLRRDKNCAKSLSGGWWFGTCSHSNLNGQYFRSIPQQRQKLKKGIFWKTWRGRYYPLQATTMLIQPMA
notes: angiopoietin-like 4 (ANGPTL4), human, C-terminal fibrinogen-like domain (cANGPTL4); also called recombinant cANGPTL4 protein; source: purified protein for SPR, added to fibroblast cultures and applied to wounds
